Data published in patent publication US20250152742A1, “COMPOSITIONS AND METHODS FOR NEUROLOGICAL DISEASES” (Trames Bio, Inc., priority 2022, published 2025).

Test system: engineered chimeric receptor SEQ ID NO: 33 and its mutants (human α7-nAChR ligand binding domain / human GlyRα1 ion pore domain) in Lenti-X 293T cells
Assay: YFP fluorescence quenching anion reporter plate reader assay (percent quench, EC50)
Type: cell-based
Settings: for YFP fluorescence quenching using CNL001 (percent quench): receptor named in row; for YFP fluorescence quenching using Varenicline, 3 nM var: ligand Varenicline 3 nM; for YFP fluorescence quenching using Varenicline, 30 nM var: ligand Varenicline 30 nM; for YFP fluorescence quenching using Varenicline, 300 nM var: ligand Varenicline 300 nM; for YFP fluorescence quenching using Varenicline, 500 nM var: ligand Varenicline 500 nM; for YFP fluorescence quenching using Varenicline, 1 uM var: ligand Varenicline 1 uM
Text: To screen these mutant LGICs for those having novel response profiles to ligands, an anion reporter assay was developed to assess the function of the LGICs in a high throughput format. In this assay, cells expressing a YFP reporter whose fluorescence is quenched in the presence of anion are transfected with DNA encoding the channel of interest. Upon exposure to ligand, channels that are activated will flux anion, resulting in a dose-dependent quench of the YFP that can be detected on a plate reader. The greater the quench signal (i.e., the more positive the value), the higher the ligand activity on the receptor is.
Lenti-X 293T cells (LX293T, Clontech) were maintained in DMEM containing 10% FBS and 1% penicillin/streptomycin (Invitrogen). […] Two days before assay, cells were split at a density of 20,000 cells/well in a 96-well tissue culture plate coated with poly-d lysine (Thermo Scientific). The next day, the cells were transiently transfected with 0.1 μg of DNA per well using standard Fugene protocol (Promega). On the day of assay, cells were washed 2 times in 1X extracellular solution (1X ECS: 140 mM NaCl, 5 mM KCl, 1 mM MgCl2, 2 mM CaCl2, 10 mM HEPES, 10 mM glucose, pH 7.2, mOsms 300). After the last wash, 100 μL of 1X ECS was added to the wells and the plate was incubated at 37° C. for 30 min. While incubating the plate, the drugs were diluted to a 2X concentration in 1X ECS-Nal (same components as 1X ECS except the 140 mM NaCl was replaced by 140 mM Nal). The plates were then read on a Flexstation3 (Molecular Devices). Each well, 8 wells at a time, of the plate is read for 2 min using a Flexstation3 (Molecular Devices) as follows: 1) a baseline YFP fluorescence is read for 17 sec, 2) 100 μL of ligand is added, and 3) the changes in YFP fluorescence are then measured every 1.3 sec for 1 minute and 43 seconds. The percent quench is calculated from the average fluorescence of the last 10 seconds of the read divided by the baseline average of the first 15 seconds prior to the ligand addition.
FIGS. 1A-1J provide heat maps of the percent quench of YFP fluorescence following stimulation by various doses of either acetylcholine or the non-native ligand as indicated in the Figures. CODA71 (SEQ ID NO: 33) was used as a control, and CODA75 (SEQ ID NO: 29, a non-responding chimeric engineered receptor) was used as the negative control. Quenching of the fluorescence signal, as indicated by blue shaded cells, indicate the level of engineered receptor activation by the non-native ligand at that concentration.

B1: CODA325: engineered receptor: L131G in SEQ ID NO: 33 (protein)
chain: MRCSPGGVWLALAASLLHVSLQGEFQRKLYKELVKNYNPLERPVANDSQPLTVYFSLSLLQIMDVDEKNQVLTTNIWLQMSWTDHYLQWNVSEYPGVKTVRFPDGQIWKPDILLYNSADERFDATFHTNVGVNSSGHCQYLPPGIFKSSCPMDLKNFPMDVQTCKLKFGSWSYGGWSLDLQMQEADISGYIPNGEWDLVGIPGKRSERFYECCKEPYPDVTFTVTMRRRMGYYLIQMYIPSLLIVILSWISFWINMDAAPARVGLGITTVLTMTTQSSGSRASLPKVSYVKAIDIWMAVCLLFVFSALLEYAAVNFVSRQHKELLRFRRKRRHHKSPMLNLFQEDEAGEGRFNFSAYGMGPACLQAKDGISVKGANNSNTTNPPPAPSKSPEEMRKLFIQRAKKIDKISRIGFPMAFLIFNMFYWIIYKIVRREDVHNQ
modifications: synthetic sequence of chimeric LGIC
YFP fluorescence quenching using CNL001 (percent quench) (1 nM CNL001, first column so headed): 74.429%
YFP fluorescence quenching using CNL001 (percent quench) (1 nM CNL001, second column so headed): 78.715%
YFP fluorescence quenching using TC-5619/Bradanicline (percent quench) (3 nM brd (TC-5619/Bradanicline)): 68.45%
YFP fluorescence quenching using CNL001 (percent quench) (10 nM CNL001, first column so headed): 79.033%
YFP fluorescence quenching using CNL001 (percent quench) (10 nM CNL001, second column so headed): 79.322%
YFP fluorescence quenching using TC-6683 (percent quench) (30 nM TC-6683): −21.27%
YFP fluorescence quenching using TC-5619/Bradanicline (percent quench) (30 nM brd (TC-5619/Bradanicline)): 76.95%
YFP fluorescence quenching using CNL001 (percent quench) (50 nM CNL001, first column so headed): 79.966%
YFP fluorescence quenching using CNL001 (percent quench) (50 nM CNL001, second column so headed): 80.091%
YFP fluorescence quenching using ABT-126 (percent quench) (50 nM abt (ABT-126)): −17.39%
YFP fluorescence quenching using CNL001 (percent quench) (100 nM CNL001, first column so headed): 81%
YFP fluorescence quenching using CNL001 (percent quench) (100 nM CNL001, second column so headed): 79.701%
YFP fluorescence quenching (percent quench) (100 nM CNL002): 45.62%
YFP fluorescence quenching using ABT-126 (percent quench) (100 nM abt (ABT-126)): 6.89%
YFP fluorescence quenching using AZD-0328 (percent quench) (100 nM azd0328): 79.75%
YFP fluorescence quenching using TC-6683 (percent quench) (300 nM TC-6683): −18.33%
YFP fluorescence quenching using ABT-126 (percent quench) (300 nM abt (ABT-126)): 38.65%
YFP fluorescence quenching using AZD-0328 (percent quench) (300 nM azd0328): 80.62%
YFP fluorescence quenching using TC-5619/Bradanicline (percent quench) (300 nM brd (TC-5619/Bradanicline)): 77.1%
YFP fluorescence quenching using CNL001 (percent quench) (1 uM CNL001, first column so headed): 79.289%
YFP fluorescence quenching using CNL001 (percent quench) (1 uM CNL001, second column so headed): 80.581%
YFP fluorescence quenching (percent quench) (1 uM CNL002): 74.72%
YFP fluorescence quenching using ABT-126 (percent quench) (1 uM abt (ABT-126)): 45.82%
YFP fluorescence quenching using TC-6683 (percent quench) (3 uM TC-6683): −7.03%
YFP fluorescence quenching (percent quench) (10 uM ach (acetylcholine)): 5.66%
YFP fluorescence quenching (percent quench) (30 uM CNL002): 77.4%
YFP fluorescence quenching using TC-6683 (percent quench) (30 uM TC-6683): 56.84%
YFP fluorescence quenching using AZD-0328 (percent quench) (30 uM azd0328): 80.19%
YFP fluorescence quenching using TC-6683 (percent quench) (100 uM TC-6683): 64.51%
YFP fluorescence quenching (percent quench) (100 uM ach (acetylcholine)): 74.07%
YFP fluorescence quenching (percent quench) (1 mM ach (acetylcholine)): 62.65%
YFP fluorescence quenching (percent quench) (3 mM ach (acetylcholine)): 69.49%
YFP fluorescence quenching using Facinicline, 30 nM fac (ligand Facinicline 30 nM): 75.75
YFP fluorescence quenching using Facinicline, 300 nM fac (ligand Facinicline 300 nM): 78.01
YFP fluorescence quenching using Facinicline, 30 uM fac (ligand Facinicline 30 uM): 76.61
YFP fluorescence quenching using TC-6987, 1 uM tc6987 (ligand TC-6987 1 uM): 64.59
YFP fluorescence quenching using TC-6987, 10 uM tc6987 (ligand TC-6987 10 uM): 76.28
YFP fluorescence quenching using TC-6987, 500 uM tc6987 (ligand TC-6987 500 uM): 70.95
YFP fluorescence quenching using Varenicline, 3 nM var (first column): −12.241
YFP fluorescence quenching using Varenicline, 3 nM var (second column): −9.415
YFP fluorescence quenching using Varenicline, 30 nM var (first column): 75.334
YFP fluorescence quenching using Varenicline, 30 nM var (second column): 72.278
YFP fluorescence quenching using Varenicline, 300 nM var (first column): 78.305
YFP fluorescence quenching using Varenicline, 300 nM var (second column): 77.83
YFP fluorescence quenching using Varenicline, 500 nM var (first column): 75.936
YFP fluorescence quenching using Varenicline, 500 nM var (second column): 76.788
YFP fluorescence quenching using Varenicline, 1 uM var (first column): 77.805
YFP fluorescence quenching using Varenicline, 1 uM var (second column): 77.352
